Results published in US20090180995A1 (NATIONAL UNIVERSITY OF SINGAPORE, published 2009).

T1: hemextin B (Hemachatus haemachatus (African …))
T1 construct: also called peak B
T1 chain: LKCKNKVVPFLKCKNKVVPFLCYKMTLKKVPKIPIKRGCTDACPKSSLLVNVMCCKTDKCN


Columns and labels:
[1] = target: TF-FVIIa complex (human, UniProt P08709 61-466; P13726 33-295); assay: cell-based or functional assay
[2] = target: plasma kallikrein; assay: cell-based or functional assay
[3] = target: T1, hemextin B; assay: ITC in phosphate, MOPS and Tris buffers at pH 7.4

Chain of TF-FVIIa complex (P08709 61-466 limits assumed, chain 1 of 2): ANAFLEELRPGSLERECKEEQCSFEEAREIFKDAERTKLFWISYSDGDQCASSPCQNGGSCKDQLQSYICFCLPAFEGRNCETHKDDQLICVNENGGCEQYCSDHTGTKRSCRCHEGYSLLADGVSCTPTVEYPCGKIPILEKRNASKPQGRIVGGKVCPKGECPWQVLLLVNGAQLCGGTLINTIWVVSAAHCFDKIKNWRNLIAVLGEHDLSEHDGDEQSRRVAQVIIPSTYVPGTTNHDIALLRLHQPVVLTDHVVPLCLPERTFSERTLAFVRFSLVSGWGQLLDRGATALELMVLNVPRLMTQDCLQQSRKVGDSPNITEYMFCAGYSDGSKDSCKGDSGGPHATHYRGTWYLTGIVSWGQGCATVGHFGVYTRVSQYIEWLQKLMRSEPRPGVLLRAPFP
Chain of TF-FVIIa complex (P13726 33-295 limits assumed, chain 2 of 2): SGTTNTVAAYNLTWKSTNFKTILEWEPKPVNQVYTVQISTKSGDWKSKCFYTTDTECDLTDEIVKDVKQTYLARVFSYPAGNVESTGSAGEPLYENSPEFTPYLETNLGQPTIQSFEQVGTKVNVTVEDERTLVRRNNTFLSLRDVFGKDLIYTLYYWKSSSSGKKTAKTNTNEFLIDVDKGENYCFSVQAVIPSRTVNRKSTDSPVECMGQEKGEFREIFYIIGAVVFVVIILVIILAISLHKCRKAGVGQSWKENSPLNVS

Binder	IC50, inhibition of extrinsic tenase activity (FXa formation) [1] [µM]	IC50, inhibition of plasma kallikrein amidolytic activity [2] [µM]	ΔHbin (binding enthalpy corrected for protonation) [3] [kcal/mol]
hemextin AB complex (other) chain 1: LKCKNKLVPFLSKTCPEGKNLCYKMTMLKMPKIPIKRGCTDACPKSSLLVKVVCCNKDKCN chain 2: LKCKNKVVPFLKCKNKVVPFLCYKMTLKKVPKIPIKRGCTDACPKSSLLVNVMCCKTDKCN	0.1	~5	
hemextin A (other, also called peak A) LKCKNKLVPFLSKTCPEGKNLCYKMTMLKMPKIPIKRGCTDACPKSSLLVKVVCCNKDKCN			-3.64
